Measurements as given in PMC3690454, “14-3-3 Proteins Interact with a Hybrid Prenyl-Phosphorylation Motif to Inhibit G Proteins” (Cell, 2013).
Square brackets hold non-standard residues; d marks the D form. Ends that are not written are not given here. * marks the point of attachment. Geranylgeranyl = CC(C)=CCC/C(C)=C/CC/C(C)=C/CC/C(C)=C/C*; Biotin = O=C1N[C@H]2[C@H](CS[C@H]2CCCCC(=O)*)N1; pS = N[C@@H](COP(=O)(O)O)C(=O)O; Ahx = NCCCCCC(=O)O

Target: T1, hexa-His-tagged 14-3-3ζ (UniProt P63104 1-245)
T1 construct: 14-3-3ζ, expressed essentially as in Kostelecky et al., 2009; eluted as a dimer of ~60 kDa; also called recombinant 14-3-3ζ; 14-3-3ζ domain; source: E. coli BL21(DE3) Star, purified (HisTrap, size-exclusion chromatography)
T1 sequence: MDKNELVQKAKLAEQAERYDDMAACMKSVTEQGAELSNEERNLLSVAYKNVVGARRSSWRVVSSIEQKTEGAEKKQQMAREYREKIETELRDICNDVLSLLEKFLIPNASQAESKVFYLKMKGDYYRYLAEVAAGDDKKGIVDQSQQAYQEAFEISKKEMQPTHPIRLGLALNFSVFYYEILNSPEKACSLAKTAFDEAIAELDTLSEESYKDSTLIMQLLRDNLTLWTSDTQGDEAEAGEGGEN
Experiment: BLI; Octet RED96; biotinylated peptides immobilised on streptavidin biosensors; dilution series of 14-3-3ζ; 25 mM Tris, 150 mM NaCl, 0.1% Tween-20; KD of +P-F by steady-state analysis
Conditions: both partners purified

Kd: ~25 nM
B1: biotinylated Rap1A C-terminal peptide, phosphorylated and geranylgeranylated (peptide)
peptide: {Biotin-Ahx}-EKKKPKKK[pS]C(Geranylgeranyl)
notes: C terminus of Rap1A up to the prenylated C181; also called Rap1A peptide; source: synthetic peptide
